Experiment [1] deals with HAdV-5 virion (E1/E3-deleted, replication-defective HAdV-5 vector with eGFP cassette) (human adenovirus 5 (HAdV-5)) (UniProt P04133). Put plainly: co-sedimentation.
The target in experiment [2] is HAdV-64 virion (E3 deleted, replication-competent HAdV-64 virus with CMV-eGFP ORF, WT HAdV-64 capsid) (human adenovirus 64 (HAdV-64)). Put plainly: co-sedimentation.

Ends that are not written are not given here.

B1: Human defensin 5 (peptide)
peptide: ATCYCRTGRCATRESLSGVCEISGRLYRLCCR
modifications: disulfide (positions not given here); also: oxidatively folded
In turn, B1 returned a stoichiometry N (molecules of HD5 per virion) in experiment [1] of 7090. Further, the fold less HD5 bound per virion than to HAdV-5 at 20 µM HD5 in experiment [2] was 83 fold.

For the origin of these results see doi:10.1101/2020.05.08.079574.
